From patent publication US12338281B2, “Anti-adrenomedullin antibodies and pharmaceutical compositions thereof” (ADRENOMED AG, priority 2011, dated 2025)

Columns and labels:
[1] = biological target: T1, Human ADM 1-52 (Homo sapiens, UniProt P35318); assay: Human recombinant Adrenomedullin receptor (CRLR+RAMP3) cAMP functional assay (Adrenomedullin Bioassay) in CHO-K1 cells, agonist human ADM; type: cell-based; conditions: Table 3; 5.63 nM Human ADM 1-52; antibody 0.16-100 μg/ml
T1 construct: host or cells: the receptor chains are made by transfected CHO-K1 cells (FAST-027C); ADM is an added peptide
T1 sequence (P35318 95-146): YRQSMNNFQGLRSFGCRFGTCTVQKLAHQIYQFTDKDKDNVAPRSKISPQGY
Method: The effect of selected ADM-antibodies on ADM-bioactivity was tested in an human recombinant Adrenomedullin receptor cAMP functional assay (Adrenomedullin Bioassay).
• Cell line: CHO-K1 • Receptor: Adrenomedullin (CRLR+RAMP3) • Receptor Accession Number Cell line: CRLR: U17473; RAMP3: AJ001016
Dose response curves were performed in parallel with the reference agonists (hADM or mADM).
For antagonist testing, 6 μl of the reference agonist (human (5.63 nM) or mouse (0.67 nM) adrenomedullin) was mixed with 6 μl of the test samples at different antagonist dilutions; or with 6 μl buffer. After incubation for 60 min at room temperature, 12 μl of cells (2,500 cells/well) were added. The plates were incubated for 30 min at room temperature.
The anti-h-ADM antibodies (NT-H, MR-H, CT-H) were tested for antagonist activity in human recombinant adrenomedullin receptor (FAST-027C) cAMP functional assay in the presence of 5.63 nM Human ADM 1-52, at the following final antibody concentrations: 100 μg/ml, 20 μg/ml, 4 μg/ml, 0.8 μg/ml, 0.16 μg/ml.

[2] = biological target: T2, hADM (Homo sapiens, UniProt P35318); assay: Stability of human Adrenomedullin in human citrate plasma, quantified by hADM immunoassay; type: in vitro ADME; conditions: 10 nM hADM, 24° C., NT-H 100 μg/ml
T2 sequence (P35318 95-146 limits assumed): T1 sequence (P35318 95-146)
Method: The stabilizing effect of human ADM by human ADM antibodies was tested using a hADM immunoassay.
The technology used was a sandwich coated tube luminescence immunoassay, based on Acridinium ester labelling.
The final concentration was approx. 800.000 relative light units (RLU) of labelled compound (approx. 20 ng labeled antibody) per 200 μL.
After blocking with 5% bovine serum albumine, the tubes were washed with PBS, pH 7.4 and vacuum dried.
Unbound tracer was removed by washing 5 times (each 1 ml) with washing solution (20 mM PBS, pH 7.4, 0.1% Triton X-100).
Human ADM was diluted in human Citrate plasma (final concentration 10 nM) and incubated at 24° C. At selected time points, the degradation of hADM was stopped by freezing at −20° C. […] The remaining hADM was quantified by using the hADM immunoassay described above.

B1: NT-H: mouse monoclonal antibody raised against human ADM 1-21, … (SEQ ID: 15) (antibody, V domains shown)
VH: QVQLQQSGAELMKPGASVKISCKATGYTFSRYWIEWVKQRPGHGLEWIGEILPGSGSTNYNEKFKGKATITADTSSNTAYMQLSSLTSEDSAVYYCTEGYEYDGFDYWGQGTTLTVSS
VL: DVLLSQTPLSLPVSLGDQATISCRSSQSIVYSNGNTYLEWYLQKPGQSPKLLIYRVSNRFSGVPDRFSGSGSGTDFTLKISRVEAEDLGVYYCFQGSHIPYTFGGGTKLEIK
Maximal inhibition of ADM bioactivity (ADM-Bioassay) (%) [1]: 38% | half life of hADM in the presence of NT-H [2]: 18.3 h
